Results on nine molecules are retold here after patent CN110272489A (SHANGHAI JIANXIN BIOPHARMACEUTICALS LLC, dated 2019).

Experiment [1] deals with T1, 人TIM-3 (recombinant antigen of the ELISA of Example 3: TIM-3-hFc captured on goat-anti-hFc, or Tim-3-his … (human, UniProt Q8TDQ0 22-202)).
T1 construct: extracellular domain; also called 人TIM-3抗原; not shown: a His tag instead if Tim-3-his was coated
The experiment in a line: ELISA on human TIM-3 (Example 3).

Experiment [2] addresses 猕猴(Macaca)Tim-3蛋白 (猕猴(Macaca)). Nature of the experiment: ELISA (method of Example 3), Fig. 4a. Background: ELISA stands for enzyme-linked immunosorbent assay.
Experiment [3] deals with T2, 狨猴(marmoset) Tim-3蛋白 (狨猴(marmoset), UniProt F7I881 21-290).
T2 sequence: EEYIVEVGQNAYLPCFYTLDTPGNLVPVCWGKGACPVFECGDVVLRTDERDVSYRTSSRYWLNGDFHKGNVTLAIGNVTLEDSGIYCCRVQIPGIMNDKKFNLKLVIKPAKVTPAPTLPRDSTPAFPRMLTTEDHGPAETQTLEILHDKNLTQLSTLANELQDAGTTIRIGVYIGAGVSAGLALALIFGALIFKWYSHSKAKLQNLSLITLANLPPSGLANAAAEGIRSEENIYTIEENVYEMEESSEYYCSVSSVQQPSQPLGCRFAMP
Nature of the experiment: ELISA (method of Example 3), Fig. 4b.

The target of experiment [4] is T3, 人Tim-3 on CHO-K1 hTim-3+ cells (human, UniProt Q8TDQ0 22-301).
T3 construct: whole, on cells; Mature protein 22-301; also called hTim-3+细胞; 人Tim-3+细胞
The experiment in a line: cell ELISA on fixed CHO-K1 hTim-3+ cells (Example 2).

Experiment [5] deals with T1, 人TIM-3 (recombinant antigen of the …). The experiment in a line: ELISA on human TIM-3 (Example 3). This is another data set of the same source.
The target of experiment [6] is T4, 人Tim-3 (antigen, analyte of the Biacore assay of Example 7) (human, UniProt Q8TDQ0 22-199).
T4 construct: Antibody captured on Protein A chip, antigen TIM-3 flowed at 0-30 nM; also called 抗原TIM-3
Nature of the experiment: SPR, Biacore T200, antibody captured on Protein A, TIM-3 as analyte, 1:1 Langmuir. In general terms: Surface plasmon resonance follows binding to a sensor surface in real time, without labels.

Experiment [7] addresses T1, 人TIM-3 (recombinant antigen of the …). The experiment in a line: ELISA on human TIM-3, against ABTIM3 as reference.
Experiment [8] deals with T4, 人Tim-3 (antigen, analyte of the Biacore …). The experiment in a line: SPR, Biacore, method of Example 7.
The target in experiment [9] is 猕猴(Macaca)Tim-3蛋白 (猕猴(Macaca)). Nature of the experiment: ELISA, against ABTIM3 as reference.

Like-named read-outs stand apart in the source and are kept apart here.

B1: 人源化ab17抗体 (antibody, human IgG4 S228P, kappa, V domains shown)
VH: EVQLVESGGGLVKPGGSLRLSCAASGFTFSDYYMTWVRQAPGKGLEWVASINYDGRNTYYLDSLKSRFTISRDNAKNSLYLQMNSLRAEDTAVYYCARGYYYYGSSPNYFDYWGQGTLVTVSS
VL: DIQMTQSPSSLSASVGDRVTITCRASENIYSYLTWYQQKPGKSPKLLVYNAKTLAEGVPSRFSGSGSGTQFTLTISSLQPEDFATYYCQQHYGTPLTFGQGTKLEIKR
notes: Humanized, hIgG4-kappa
With B1, in [1], the EC50 was determined as 0.212 nM.

B2: 人源化ab24抗体 (antibody, human IgG4 S228P, kappa, V domains shown)
VH: EVQLVESGGGLVKPGGSLRLSCAASGFTFSDYYMTWVRQAPGKGLEWVASINYDGRNTYYLDSLKSRFTISRDNAKNILYLQMNSLRAEDTAVYYCARGYYYYGSSPNYFDYWGQGTLVTVSS
VL: DIQMTQSPSSLSASVGDRVTITCRASENIYSYLTWYQQKPGKSPKLLVYNAKTLAEGVPSRFSGSGSGTQFTLTISSLQPEDFATYYCQQHYGTPLTFGQGTKLEIKR
notes: Humanized, hIgG4-kappa
B2: the EC50 in experiment [1] was 0.243 nM.

B3: 人源化ab30抗体 (antibody, human IgG4 S228P, kappa, V domains shown)
VH: EVQLVESGGGLVKPGGSLRLSCAASGFTFSDYYMTWVRQAPGKGLEWVSSINYDGRNTYYLDSLKSRFTISRDNAKNSLYLQMNSLRAEDTAVYYCARGYYYYGSSPNYFDYWGQGTLVTVSS
VL: DIQMTQSPSSLSASVGDRVTITCRASENIYSYLTWYQQKPGKSPKLLVYNAKTLAEGVPSRFSGSGSGTQFSLTISSLQPEDFANYYCQQHYGTPLTFGQGTKLEIKR
notes: Humanized, hIgG4-kappa
Take B3: the EC50 in [1] came out at 0.233 nM.

B4: 人源化ab23抗体 (antibody, human IgG4 S228P, kappa, V domains shown)
VH: EVQLVESGGGLVKPGGSLRLSCAASGFTFSDYYMTWVRQAPGKGLEWVASINYDGRNTYYLDSLKSRFTISRDNAKNILYLQMNSLRAEDTAVYYCARGYYYYGSSPNYFDYWGQGTLVTVSS
VL: DIQMTQSPSSLSASVGDRVTITCRASENIYSYLTWYQQKPGKSPKLLVYNAKTLAEGVPSRFSGSGSGTQFSLTISSLQPEDFANYYCQQHYGTPLTFGQGTKLEIKR
notes: Humanized, hIgG4-kappa
On to B4, for which the EC50 in experiment [1] was found to be 0.21 nM.

B5: 人源化ab18抗体 (antibody, human IgG4 S228P, kappa, V domains shown)
VH: EVQLVESGGGLVKPGGSLRLSCAASGFTFSDYYMTWVRQAPGKGLEWVASINYDGRNTYYLDSLKSRFTISRDNAKNSLYLQMNSLRAEDTAVYYCARGYYYYGSSPNYFDYWGQGTLVTVSS
VL: DIQMTQSPSSLSASVGDRVTITCRASENIYSYLTWYQQKPGKAPKLLIYNAKTLAEGVPSRFSGSGSGTDFTLTISSLQPEDFATYYCQQHYGTPLTFGQGTKLEIKR
notes: Humanized, hIgG4-kappa
Take B5: the EC50 in experiment [1] was 0.198 nM.

B6: ABTIM3 (阳性对照抗体) (antibody, V domains shown)
VH: QVQLQQPGAELVKPGASVKMSCKASGYTFTSYNMHWIKQTPGQGLEWIGDIYPGNGDTSYNQKFKGKATLTADKSSSTVYMQLSSLTSEDSAVYYCARVGGAFPMDYWGQGTSVTVSS
VL: DIVLTQSPASLAVSLGQRATISCRASESVEYYGTSLMQWYQQKPGQPPKLLIYAASNVESGVPARFSGSGSGTDFSLNIHPVEEDDIAIYFCQQSRKDPSTFGGGTKLEIK
For B6, the EC50 is 0.14 nM in experiment [2], 0.4 nM in experiment [3], 0.15 to 0.23 nM in [4] and 0.376 nM in [5].

B7: mab15-c (嵌合抗体, hIgG4-κ) (antibody, V domains shown)
VH: EVKLVESEGGLVQPGSSMKLSCTASGFTFSDYYMTWVRQVPEKGLEWVASINYDGRNTYYLDSLKSRFIISRDNAKNILYLQMSSLKSEDTATYYCARGYYYYGSSPNYFDYWGQGTTLTVSS
VL: DIQMTQSPASLSASVGETVTITCRASENIYSYLTWYQQKQGKSPQLLVYNAKTLAEGVPSRFSGSGSGTQFSLRINSLQPEDFGNYYCQQHYGTPLTFGAGTKLELKR
notes: Chimeric antibody: mab15 variable regions with human IgG4 / kappa constant regions
Take B7: in experiment [6], binding was characterised by a dissociation constant (Kd) of 0.31 nM, the koff was determined as 0.000106 s⁻¹ and the kon amounted to 344000 M⁻¹ s⁻¹. Further, the “fold better than the reference antibody (ratio of EC50, reference/mab15-c)” value in experiment [7] turned out to be 2.38 fold. In experiment [1], the EC50 came out at 0.183 nM. Besides, the EC50 in experiment [5] is 0.158 nM.

B8: 人源化ab16 抗体 (antibody, human IgG4 S228P, kappa, V domains shown)
VH: EVQLVESGGGLVKPGGSLRLSCAASGFTFSDYYMTWVRQAPGKGLEWVASINYDGRNTYYLDSLKSRFTISRDNAKNSLYLQMNSLRAEDTAVYYCARGYYYYGSSPNYFDYWGQGTLVTVSS
VL: DIQMTQSPSSLSASVGDRVTITCRASENIYSYLTWYQQKPGKSPKLLVYNAKTLAEGVPSRFSGSGSGTQFSLTISSLQPEDFANYYCQQHYGTPLTFGQGTKLEIKR
notes: Humanized, hIgG4-kappa
Turning to B8, the EC50 in experiment [1] turned out to be 0.145 nM; in experiment [4], 0.151 nM.

B9: 人源化ab32抗体 (全人源化抗体) (antibody, human IgG4 S228P, kappa, V domains shown)
VH: EVQLVESGGGLVKPGGSLRLSCAASGFTFSDYYMTWVRQAPGKGLEWVSSINYDGRNTYYLDSLKSRFTISRDNAKNSLYLQMNSLRAEDTAVYYCARGYYYYGSSPNYFDYWGQGTLVTVSS
VL: DIQMTQSPSSLSASVGDRVTITCRASENIYSYLTWYQQKPGKAPKLLIYNAKTLAEGVPSRFSGSGSGTDFTLTISSLQPEDFATYYCQQHYGTPLTFGQGTKLEIKR
notes: Fully humanized (no back mutations), hIgG4-kappa
In [8], B9 showed a koff of 0.000296 s⁻¹. Besides, the values for the EC50 in experiment [2], in [1] and in experiment [4] were 11 nM, 0.184 nM and 0.112 nM, respectively. For the same molecule, the “fold weaker than the positive control antibody” value in experiment [9] is ~100 fold.

The term EC50 denotes the concentration giving half of the maximal effect. Usually Kd stands for a measure of binding affinity in units of concentration. By koff is commonly meant the rate constant with which the complex falls apart. As usually defined, the kon is the second-order rate constant of association. Lower therefore signals slow association.
